Experiments:
[1] = target: T1, SSB (single-stranded DNA-binding protein) (UniProt P0AGE0 P0AGE0:2-178); assay: NECEEM run buffer 25 mM tetraborate pH 9.4 with 100 nM SSB; fully double-stranded, not bound; conditions: chain copies: 4; label: 5'-fluorescein on DNA-1; duplex without single-stranded overhang
[2] = target: T1, SSB (single-stranded DNA-binding …); assay: NECEEM; 25 mM tetraborate pH 9.4, incubated at room temperature; koff 3.3e-2 s-1, kon 1.2e5 M-1 s-1; conditions: chain copies: 4; label: 5'-fluorescein
Procedure: SSB and a fluorescently-labeled 15-mer ssDNA oligonucleotide, 5′-fluorescein-[…] ([…]) were used in this example (Berezovski and Krylov J. Amer. Chem. Soc. 2002, 124, 13674). NECEEM separation of protein-DNA complexes was performed using a laboratory-built CE instrument with fluorescence detector described in detail elsewhere (Wu and Dovichi J. Chromatogr. 1989, 480, 141). A 488 nm line of an Argon-ion laser was utilized to excite the fluorescence of the DNA. Uncoated fused silica capillaries of 40 cm×20 μm I.D.×150 μm O.D. were used. The electrophoresis was run with a positive electrode at the injection end biased at +24 kV. The run buffer for NECEEM was 25.0 mM tetraborate at pH 9.4. The samples were injected into the capillary by a pressure pulse of 1 s×9.1 kPa; the length of corresponding sample plug was 0.93 mm as was calculated using the Poiseulle equation (Krylov et al. Anal. Chem. 2000, 72, 872). The capillary was rinsed with the run buffer solution for 2 minutes prior to each run. At the end of each run, the capillary was rinsed with 100 mM NaOH for 2 minutes, followed by a rinse with deionized water for 2 minutes.
Equilibrium mixtures of SSB, fDNA and SSB•fDNA complex were prepared by mixing solutions of 16 μM SSB and 205 nM fDNA in the run buffer at a desired volume ratio and incubating them at room temperature to reach equilibrium prior to the analysis. […]

[3] = target: T1, SSB (single-stranded DNA-binding …); assay: NECEEM run buffer 25 mM tetraborate pH 9.4 with 100 nM SSB; binds via single-stranded overhang; conditions: chain copies: 4; label: 5'-fluorescein on DNA-1; duplex with 10-nt single-stranded overhang

T1 sequence (P0AGE0 2-178, one chain of several): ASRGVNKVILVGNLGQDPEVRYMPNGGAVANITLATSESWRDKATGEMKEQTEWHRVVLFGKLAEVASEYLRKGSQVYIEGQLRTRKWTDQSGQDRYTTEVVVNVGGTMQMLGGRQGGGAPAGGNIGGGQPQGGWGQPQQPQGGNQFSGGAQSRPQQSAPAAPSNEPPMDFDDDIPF

B1: DNA-1/DNA-3/DNA-2 hybrid (dsDNA)
DNA 1: GCGGAGCGTGGCAGG
DNA 2: CCTGCCACGCTCCGCTCTAAAAATAA
DNA 3: TTATTTTTAG
binding result [1]: no binding

B2: fDNA 15-mer (DNA-1) (ssDNA)
DNA: GCGGAGCGTGGCAGG
Kd [2]: 0.28 µM

B3: DNA-1/DNA-3 hybrid (mixed)
DNA 1: GCGGAGCGTGGCAGG
DNA 2: CCTGCCACGCTCCGCTCTAAAAATAA
binding result [3]: binds

From US20100243450, “NON-EQUILIBRIUM CAPILLARY ELECTROPHORESIS OF EQUILIBRIUM MIXTURES (NECEEM)-BASED METHODS FOR DRUG AND DIAGNOSTIC DEVELOPMENT” (published 2010)
